The target of data set [1] is T1, OfERF61 (Osmanthus fragrans, UniProt A0A5P8PES4 1-303). In words: EMSA; 0, 2, 4, 8 ug ERF61; complex increases with protein; LightShift Chemiluminescent EMSA Kit (Thermo Fisher), manufacturer's instructions; buffer, salt, pH and temperature not stated. The following applies: protein: recombinant; tags: pET-30a vector tags (not given); label: 3' biotin (sense strand); blunt. (In general: Mobility shift assays separate free from complexed probe on a gel.)

In data set [2] the target is T1, OfERF61. In words: competition; labeled OC1 probe; signal reduced at 20-fold, not detected at 200-fold excess; LightShift Chemiluminescent EMSA Kit (Thermo Fisher), manufacturer's instructions; buffer, salt, pH and temperature not stated. The following applies: protein: recombinant; tags: pET-30a vector tags (not given); label: none; blunt.

T1 sequence (A0A5P8PES4 entry or part of it): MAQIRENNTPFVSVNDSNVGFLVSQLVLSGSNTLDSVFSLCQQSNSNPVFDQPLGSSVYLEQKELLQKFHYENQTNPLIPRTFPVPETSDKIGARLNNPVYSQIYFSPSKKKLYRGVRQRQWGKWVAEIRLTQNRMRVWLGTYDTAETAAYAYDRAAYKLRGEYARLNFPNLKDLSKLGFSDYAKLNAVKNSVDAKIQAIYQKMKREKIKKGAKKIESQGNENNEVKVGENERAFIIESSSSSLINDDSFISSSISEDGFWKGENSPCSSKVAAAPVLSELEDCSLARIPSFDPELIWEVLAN

B1: OC1 probe (OfCCD4 promoter, CAACA element) (dsDNA)
DNA 1: AAAGAAAAAAGGACAACAACAGTGGATAATTTGA
DNA 2: TCAAATTATCCACTGTTGTTGTCCTTTTTTCTTT
As for B1, the binding result in the data set with OfERF61 [1] is “binds”.

B2: OC1 unlabeled competitor (dsDNA)
DNA 1: AAAGAAAAAAGGACAACAACAGTGGATAATTTGA
DNA 2: TCAAATTATCCACTGTTGTTGTCCTTTTTTCTTT
Regarding B2, the binding result in the data set with OfERF61 [2] is reported as “binds”.
